# Paper PMC6506776
# Key:
# [1] = target: His-NtCDC48 recombinant protein (Nicotiana tabacum); experiment: SDS-PAGE and immunoblot
# [2] = target: NtCDC48, endogenous (Nicotiana tabacum (endogenous in cv. Xanthi cell suspensions)); experiment: SDS-PAGE and immunoblot
# [3] = target: CFP-NtCDC48 (Nicotiana tabacum); experiment: FRET or BRET
# [4] = target: cytosolic ascorbate peroxidase (cAPX), endogenous (Nicotiana tabacum (endogenous in cv. Xanthi cell suspensions)); experiment: native gel or EMSA
substance,measurement,setting,value
His-NtCDC48 recombinant protein (natural protein),stoichiometry N,[1],6
"NtCDC48, endogenous (natural protein)",stoichiometry N,[2],6
cAPX-YFP (enzyme),CFP donor fluorescence lifetime with the acceptor (2.97 ns for the donor alone),[3],2.41 ns
"cytosolic ascorbate peroxidase (cAPX), endogenous (enzyme)",stoichiometry N,[4],2
